Literature values, collected in PMC12580572.

Experiments:
[1] = biological target: GluK2 (Rattus norvegicus) (UniProt P42260)
[2] = biological target: GluK5 (Rattus norvegicus) (UniProt Q63273)
UniProt Q63273, sequence (Q63273 15-979): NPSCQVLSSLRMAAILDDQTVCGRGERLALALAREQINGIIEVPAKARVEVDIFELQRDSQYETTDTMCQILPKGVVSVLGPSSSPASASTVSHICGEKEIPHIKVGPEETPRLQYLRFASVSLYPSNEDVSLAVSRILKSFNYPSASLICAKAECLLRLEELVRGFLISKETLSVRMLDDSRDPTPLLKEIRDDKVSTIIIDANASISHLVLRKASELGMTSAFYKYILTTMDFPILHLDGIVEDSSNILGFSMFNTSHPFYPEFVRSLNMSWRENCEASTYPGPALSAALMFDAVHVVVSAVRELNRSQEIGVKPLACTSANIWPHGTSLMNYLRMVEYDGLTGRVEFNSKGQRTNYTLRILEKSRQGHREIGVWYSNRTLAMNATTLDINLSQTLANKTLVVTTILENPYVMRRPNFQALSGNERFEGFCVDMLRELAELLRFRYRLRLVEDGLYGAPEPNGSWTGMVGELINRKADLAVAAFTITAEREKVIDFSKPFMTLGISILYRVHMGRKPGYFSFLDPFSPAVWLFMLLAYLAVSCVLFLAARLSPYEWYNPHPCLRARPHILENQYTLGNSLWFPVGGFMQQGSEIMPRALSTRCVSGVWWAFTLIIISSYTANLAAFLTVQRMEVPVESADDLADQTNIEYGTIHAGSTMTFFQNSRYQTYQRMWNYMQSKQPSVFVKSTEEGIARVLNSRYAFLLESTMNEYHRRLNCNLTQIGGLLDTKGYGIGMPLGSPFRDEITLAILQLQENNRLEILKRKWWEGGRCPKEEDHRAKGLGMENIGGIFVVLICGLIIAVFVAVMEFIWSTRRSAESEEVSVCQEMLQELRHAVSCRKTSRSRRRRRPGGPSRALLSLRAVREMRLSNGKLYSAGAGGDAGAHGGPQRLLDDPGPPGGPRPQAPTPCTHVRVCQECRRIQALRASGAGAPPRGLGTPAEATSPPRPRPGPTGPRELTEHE

GluK2 (from UniProt P42260)
Kd [1]: 0.35 µM | Kd [2]: 0.077 µM
